The results in this text go back to article PMC3898472, “Molecular Basis for DNA Double-Strand Break Annealing and Primer Extension by an NHEJ DNA Polymerase”.

The target of the data set is Mt-PolDom K217A (UniProt P9WNV3 1-300, K217A). Description: EMSA. The settings on record: protein: recombinant; label: 32P 5'-end label. In general terms: In EMSA bound probe runs differently from free probe, usually more slowly.

B1: 1-nt gapped SP1C/T13C/DG-P (dsDNA)
DNA 1: AGAAGTGTATCTAGTACTCACTGTGATC
DNA 2: GATCACAGTGAGTAC
DNA 3: AGATACACTTCT
modifications: 5'-phosphate on DG
For B1, the binding result is on record as “binds”.
